Test system: patients with locally advanced or metastatic urothelial cancer
Test: Same phase 2 study: safety (adverse events, NCI CTCAE v4.03)
Assay type: in vivo, human
Details: Cohort 2 (N = 89)
From the text: Safety assessments will be based on the information collected through the safety surveillance process and will include the data from recorded adverse events (AEs) including SAEs, recording of concomitant medication, physical examination findings, cardiac monitoring, and laboratory tests.
The assessment of safety during the course of this study will consist of the surveillance and recording of AEs including SAEs, recording of concomitant medication, and measurements of protocol-specified physical examination findings, cardiac monitoring, and laboratory tests.
AE severity should be graded using the National Cancer Institute's Common Terminology Criteria for Adverse Events (NCI CTCAE), Version 4.03. These criteria are provided in the study manual.
An overview of AEs will provide a tabulation of the incidence of all AEs, treatment-emergent AEs, treatment-related AEs, Grade 3 and higher AEs. SAEs, treatment-related SAEs, deaths, and AEs leading to study treatment discontinuation. Adverse events will be defined as treatment emergent if they are newly occurring or worsened following study treatment.
AEs will be classified by system organ class and preferred tem using the Medical Dictionary for Regulatory Activities (MedDRA) and graded using NCI CTCAE, Version 4.03.
The incidence of AEs will be summarized by system organ class, preferred term, severity and relationship to study drug. In the event of multiple occurrences of the same AE in one patient, the AE will be counted once as the occurrence for the maximum grade. AEs leading to premature discontinuation of study drug will be summarized and listed in the same manner.

## enfortumab vedotin: Nectin-4 directed ADC: fully human anti-nectin-4 IgG1 kappa antibody (AGS-22C3) conjugated to MMAE via protease-cleavable maleimidocaproyl valine-citrulline linker
  AE of special interest, All Grade: Ocular Events, Blurred Vision: 9 (10.1) N (%)
  AE of special interest, All Grade: Ocular Events, Corneal Disorders: 5 (5.6) N (%)
  AE of special interest, All Grade: Ocular Events, Dry Eye Disorders: 27 (30.3) N (%)
  AE of special interest, All Grade: Peripheral Neuropathy: 51 (58.4) N (%)
  AE of special interest, All Grade: Rash: 59 (66.3) N (%)
  AE of special interest, ≥Gr 3: Hyperglycemia: 8 (9) N (%)
  AE of special interest, ≥Gr 3: IRR: 1 (1.1) N (%)
  AE of special interest, ≥Gr 3: Peripheral Neuropathy: 7 (7.9) N (%)
  AE of special interest, ≥Gr 3: Rash: 15 (16.9) N (%)
  Any TEAEs: 89 (100.0) n (%)
  Any TEAEs leading to death: 8 (9.0) n (%)
  Any TEAEs leading to treatment discontinuation: 18 (20.2) n (%)
  Any grade 3-5 TEAEs: 62 (69.7) n (%)
  Any serious TEAEs: 35 (39.3) n (%)
  SAEs (All): Acute kidney injury: 9 (10.1) n (%)
  SAEs (All): Diarrhoea: 3 (3.4) n (%)
  SAEs (All): Febrile neutropenia: 1 (1.1) n (%)
  SAEs (All): Nausea: 2 (2.2) n (%)
  SAEs (All): Overall: 35 (39.3) n (%)
  SAEs (All): Pneumonia: 3 (3.4) n (%)
  SAEs (All): Sepsis: 4 (4.5) n (%)
  SAEs (All): Urinary tract infection: 3 (3.4) n (%)
  SAEs (Related): Acute kidney injury: 3 (3.4) n (%)
  SAEs (Related): Diarrhoea: 2 (2.2) n (%)
  SAEs (Related): Febrile neutropenia: 1 (1.1) n (%)
  SAEs (Related): Nausea: 1 (1.1) n (%)
  SAEs (Related): Overall: 15 (16.9) n (%)
  SAEs (Related): Pneumonia: 1 (1.1) n (%)
  Treatment-related AE leading to discontinuation: Acute kidney injury: 2 (2.2) n (%)
  Treatment-related AE leading to discontinuation: Dermatitis bullous: 1 (1.1) n (%)
  Treatment-related AE leading to discontinuation: Lipase increased: 2 (2.2) n (%)
  Treatment-related AE leading to discontinuation: Metabolic acidosis: 1 (1.1) n (%)
  Treatment-related AE leading to discontinuation: Multiple organ dysfunction syndrome: 1 (1.1) n (%)
  Treatment-related AE leading to discontinuation: Muscular weakness: 1 (1.1) n (%)
  Treatment-related AE leading to discontinuation: Overall: 14 (15.7) n (%)
  Treatment-related AE leading to discontinuation: Peripheral motor neuropathy: 1 (1.1) n (%)
  Treatment-related AE leading to discontinuation: Peripheral sensory neuropathy: 4 (4.5) n (%)
  Treatment-related AE leading to discontinuation: Pneumonitis: 1 (1.1) n (%)
  Treatment-related TEAEs: 86 (96.6) n (%)
  Treatment-related TEAEs (all grades): Alopecia: 45 (50.6) n (%)
  Treatment-related TEAEs (all grades): Anaemia: 22 (24.7) n (%)
  Treatment-related TEAEs (all grades): Aspartate aminotransferase increased: 7 (7.9) n (%)
  Treatment-related TEAEs (all grades): Decreased appetite: 29 (32.6) n (%)
  Treatment-related TEAEs (all grades): Diarrhoea: 20 (22.5) n (%)
  Treatment-related TEAEs (all grades): Dry eye: 11 (12.4) n (%)
  Treatment-related TEAEs (all grades): Dry skin: 16 (18.0) n (%)
  Treatment-related TEAEs (all grades): Dysgeusia: 24 (27.0) n (%)
  Treatment-related TEAEs (all grades): Fatigue: 30 (33.7) n (%)
  Treatment-related TEAEs (all grades): Lacrimation increased: 9 (10.1) n (%)
  Treatment-related TEAEs (all grades): Nausea: 20 (22.5) n (%)
  Treatment-related TEAEs (all grades): Neutropenia: 11 (12.4) n (%)
  Treatment-related TEAEs (all grades): Oedema peripheral: 10 (11.2) n (%)
  Treatment-related TEAEs (all grades): Overall: 86 (96.6) n (%)
  Treatment-related TEAEs (all grades): Peripheral sensory neuropathy: 42 (47.2) n (%)
  Treatment-related TEAEs (all grades): Pruritus: 27 (30.3) n (%)
  Treatment-related TEAEs (all grades): Rash maculo-papular: 27 (30.3) n (%)
  Treatment-related TEAEs (all grades): Vomiting: 7 (7.9) n (%)
  Treatment-related TEAEs (all grades): Weight decreased: 23 (25.8) n (%)
  Treatment-related TEAEs leading to death: 3 (3.4) n (%)
  Treatment-related TEAEs leading to treatment discontinuation: 14 (15.7) n (%)
  Treatment-related TEAEs ≥Grade 3: Acute kidney injury: 4 (4.5) n (%)
  Treatment-related TEAEs ≥Grade 3: Amylase increased: 3 (3.4) n (%)
  Treatment-related TEAEs ≥Grade 3: Anaemia: 5 (5.6) n (%)
  Treatment-related TEAEs ≥Grade 3: Aspartate aminotransferase increased: 2 (2.2) n (%)
  Treatment-related TEAEs ≥Grade 3: Decreased appetite: 5 (5.6) n (%)
  Treatment-related TEAEs ≥Grade 3: Diarrhoea: 5 (5.6) n (%)
  Treatment-related TEAEs ≥Grade 3: Fatigue: 6 (6.7) n (%)
  Treatment-related TEAEs ≥Grade 3: Febrile neutropenia: 1 (1.1) n (%)
  Treatment-related TEAEs ≥Grade 3: Hyperglycaemia: 5 (5.6) n (%)
  Treatment-related TEAEs ≥Grade 3: Hyponatraemia: 3 (3.4) n (%)
  Treatment-related TEAEs ≥Grade 3: Lipase increased: 5 (5.6) n (%)
  Treatment-related TEAEs ≥Grade 3: Neutropenia: 8 (9.0) n (%)
  Treatment-related TEAEs ≥Grade 3: Neutrophil count decreased: 3 (3.4) n (%)
  Treatment-related TEAEs ≥Grade 3: Overall: 49 (55.1) n (%)
  Treatment-related TEAEs ≥Grade 3: Peripheral sensory neuropathy: 3 (3.4) n (%)
  Treatment-related TEAEs ≥Grade 3: Pruritus: 3 (3.4) n (%)
  Treatment-related TEAEs ≥Grade 3: Rash erythematous: 2 (2.2) n (%)
  Treatment-related TEAEs ≥Grade 3: Rash maculo-papular: 7 (7.9) n (%)
  Treatment-related grade 3-5 TEAEs: 49 (55.1) n (%)
  Treatment-related serious TEAEs: 15 (16.9) n (%)
Additional 3 months follow-up
  TRAEs, Any Grade: Alopecia: 45 (51) n (%)
  TRAEs, Any Grade: Anemia: 22 (25) n (%)
  TRAEs, Any Grade: Decreased appetite: 29 (33) n (%)
  TRAEs, Any Grade: Diarrhea: 20 (22) n (%)
  TRAEs, Any Grade: Dysgeusia: 25 (28) n (%)
  TRAEs, Any Grade: Fatigue: 30 (34) n (%)
  TRAEs, Any Grade: Hyperglycemia: 8 (9) n (%)
  TRAEs, Any Grade: Lipase increased: 7 (8) n (%)
  TRAEs, Any Grade: Nausea: 20 (22) n (%)

Source: patent US20230364254A1, “METHODS FOR TREATING CANCERS WITH ANTIBODY DRUG CONJUGATES (ADC) THAT BIND TO 191P4D12 PROTEINS” (priority 2020, published 2023)
